Assay results taken from the supplement of paper PMC12667976.
± gives the standard error.

B1: library; numbered along this chain (parent)
chain: MATDAALRRLLRLHRTEIAVAVDSAFPLLHALADHDVVPEDKFQETLHLKEKEGCPQAFHALLSWLLTQDSTAILDFWRVLFKDYNLERYGRLQPILDSFPKDVDLSQPRKGRKPPAVPKALVPPPRLPTKRKASEEARAAAPAALTPRGTASPGSQLKAKPPKKPESSAEQQRLPLGNGIQTMSASVQRAVAMSSGDVPGARGAVEGILIQQVFESGGSKKCIQVGGEFYTPSKFEDSGSGKNKARSSSGPKPLVRAKGAQGAAPGGGEARLGQQGSVPAPLALPSDPQLHQKNEDECAVCRDGGELICCDGCPRAFHLACLSPPLREIPSGTWRCSSCLQATVQEVQPRAEEPRPQEPPVETPLPPGLRSAGEEVRGPPGEPLAGMDTTLVYKHLPAPPSAAPLPGLDSSALHPLLCVGPEGQQNLAPGARCGVCGDGTDVLRCTHCAAAFHWRCHFPAGTSRPGTGLRCRSCSGDVTPAPVEGVLAPSPARLAPGPAKDDTASHEPALHRDDLESLLSEHTFDGILQWAIQSMARPAAPFPS

Variants of: B1
Test: AIRE transcriptional activation functional score (insulin promoter-GFP; nonsense median 0, synonymous median 1) (normalised score); higher = higher AIRE activity (more reporter activation)
Conditions: with insulin promoter-GFP reporter in HEK293
Outline: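 Flp-In T-REx HEK293 landing-pad cells carrying an insulin core promoter-GFP reporter received codon-optimized AIRE NNN-codon libraries (three regions) through Bxb1 recombinase. Sorting of mCherry+, BFP− integrants took place at day 7, followed by 7 days of expansion and tile-sequencing of top 10% GFP and unselected integrant populations. A functional score was derived from select versus non-select variant enrichment with wild type subtracted. Values from variants reaching 10 counts per million in non-select were set to nonsense median 0 and synonymous median 1 and averaged over biological replicates.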

| Variant | AIRE transcriptional activation functional score |
| --- | --- |
| P542C | 1.05 ± 0.21 |
| P542A | 1.19 ± 0.2 |
| P542T | 0.963 ± 0.13 |
| P542K | 0.249 ± 0.14 |
| P542F | 0.923 ± 0.081 |
| P542V | 1.16 ± 0.16 |
| P542M | 1.3 ± 0.025 |
| P542D | 0.633 ± 0.23 |
| P542W | 0.476 ± 0.038 |
| P542G | 0.957 ± 0.13 |
| P542N | -0.142 ± 0.32 |
| P542Y | 1.25 ± 0.043 |
| P542R | 0.209 ± 0.13 |
| P542S | 1.07 ± 0.28 |
| P542E | 0.426 ± 0.24 |
| P542Q | 0.942 ± 0.21 |
| P542H | 0.651 ± 0.037 |
| P542L | 1.07 ± 0.084 |
| P542I | 1.09 ± 0.22 |
| A540S | 0.988 ± 0.28 |
| A540V | 1.11 ± 0.14 |
| A540M | 0.694 ± 0.066 |
| A540C | 1.37 ± 0.19 |
| A540G | 1 ± 0.31 |
| A540H | 0.844 ± 0.43 |
| A540R | 0.119 ± 0.26 |

| Variant | AIRE transcriptional activation functional score |
| --- | --- |
| A540I | 0.978 ± 0.18 |
| A540W | 0.41 ± 0.054 |
| A540Y | 0.912 ± 0.12 |
| A540T | 0.867 ± 0.26 |
| A540N | 1.02 ± 0.19 |
| A540Q | 0.739 ± 0.11 |
| A540D | 0.625 ± 0.45 |
| A540E | 0.617 ± 0.17 |
| A540L | 0.964 ± 0.28 |
| A540P | 1.07 ± 0.37 |
| A540F | 0.417 ± 0.032 |
| A540K | 0.195 ± 0.23 |
| F543V | 0.18 ± 0.21 |
| F543P | 1.13 ± 0.06 |
| F543Q | 0.317 ± 0.17 |
| F543T | 0.669 ± 0.16 |
| F543I | 0.17 ± 0.19 |
| F543Y | 0.833 ± 0.25 |
| F543L | 0.729 ± 0.15 |
| F543S | 0.493 ± 0.26 |
| F543E | 0.561 ± 0.2 |
| F543C | 0.138 ± 0.091 |
| F543G | 0.595 ± 0.26 |
| F543M | 0.745 ± 0.12 |
| F543N | 0.535 ± 0.17 |
| F543W | 1.23 ± 0.085 |

| Variant | AIRE transcriptional activation functional score |
| --- | --- |
| F543A | 0.367 ± 0.22 |
| F543D | 0.845 ± 0.096 |
| F543R | 0.296 ± 0.13 |
| S545A | -0.21 ± 0.1 |
| S545T | 0.998 ± 0.12 |
| S545P | 0.59 ± 0.21 |
| S545Y | 1.35 ± 0.053 |
| S545C | 1.3 ± 0.047 |
| S545F | 1.04 ± 0.1 |
| P544I | 1.16 ± 0.096 |
| P544C | 0.924 ± 0.031 |
| P544S | 0.867 ± 0.39 |
| P544N | -0.709 ± 0.074 |
| P544Y | 1.65 ± 0.029 |
| P544A | 1.28 ± 0.25 |
| P544T | 0.985 ± 0.49 |
| P544Q | 0.746 ± 0.033 |
| P544L | 1.19 ± 0.1 |
| P544V | 0.842 ± 0.046 |
| P544F | 0.586 ± 0.11 |
| P544H | 0.559 ± 0.22 |
| P544R | 0.52 ± 0.21 |
| P544G | 1.38 ± 0.087 |
| P539N | 0.745 ± 0.36 |
| P539T | 0.931 ± 0.2 |
| P539Q | 0.339 ± 0.087 |

| Variant | AIRE transcriptional activation functional score |
| --- | --- |
| P539R | 0.158 ± 0.18 |
| P539S | 0.85 ± 0.2 |
| P539V | 0.434 ± 0.12 |
| P539W | 0.719 ± 0.068 |
| P539Y | -0.367 ± 0.19 |
| P539M | 0.297 ± 0.044 |
| A541D | 0.469 ± 0.25 |
| A541V | 1.1 ± 0.19 |
| A541M | 0.557 ± 0.35 |
| A541S | 0.717 ± 0.35 |
| A541W | 0.259 ± 0.02 |
| A541F | 0.75 ± 0.26 |
| A541E | 0.858 ± 0.22 |
| A541T | 0.842 ± 0.18 |
| A541N | 0.974 ± 0.061 |
| A541G | 0.847 ± 0.25 |
| A541I | 1.3 ± 0.064 |
| A541R | 0.198 ± 0.16 |
| A541P | 0.791 ± 0.2 |
| A541Y | 0.977 ± 0.18 |
| A541C | 1.43 ± 0.09 |
| A541Q | 1.05 ± 0.076 |
| A541H | 0.976 ± 0.41 |
| A541L | 0.957 ± 0.3 |
| A541K | 0.252 ± 0.083 |
